Holding throughout (conditions): remark: other sources report otherwise
In test [1] the target is recombinant soluble homotrimeric HA of A/Japan/305/57 (H2N2) (Influenza A virus A/Japan/305/1957 (H2N2)). Nature of the test: HA microarray, BCC supernatant.
In test [2] the target is recombinant soluble homotrimeric HA of A/duck/Yangzhou/02/2005 (H8N4) (Influenza A virus A/duck/Yangzhou/02/2005 (H8N4)). The test can be described thus: HA microarray, BCC supernatant.
Test [3] deals with recombinant soluble homotrimeric HA, A/Anhui/1/05 (H5N1) (influenza A virus A/Anhui/1/2005 (H5N1)). Nature of the test: microarray, trimeric HA, transfection supernatant.
Test [4] addresses recombinant soluble homotrimeric HA, A/Hong Kong/156/97 (H5N1) (influenza A virus A/Hong Kong/156/97 (H5N1)). Nature of the test: microarray, trimeric HA, transfection supernatant.
Test [5] addresses recombinant soluble homotrimeric HA, A/chicken/Vietnam/NCVD-016/08 (H5N1) (influenza A virus A/chicken/Vietnam/NCVD-016/2008 (H5N1)). Nature of the test: microarray, trimeric HA, transfection supernatant.
Test [6] has as its target recombinant soluble homotrimeric HA, A/duck/Yangzhou/02/2005 (H8N4) (influenza A virus A/duck/Yangzhou/02/2005 (H8N4)). Nature of the test: microarray, trimeric HA, transfection supernatant.
The target of test [7] is recombinant soluble homotrimeric HA, A/northern shoveler/California/HKWF115/2007 (H6N1) (influenza A virus A/northern shoveler/California/HKWF115/2007 (H6N1)). Nature of the test: microarray, trimeric HA, transfection supernatant.
Test [8] deals with recombinant homotrimeric HA, A/Japan/305/57 H2N2 (Influenza A virus A/Japan/305/57 (H2N2)). Nature of the test: trimeric HA microarray; transfection supernatant set 5.
Test [9] concerns the target recombinant soluble homotrimeric HA of A/California/4/09 (H1N1) (Influenza A virus A/California/04/2009 (H1N1)). The test can be described thus: HA microarray, BCC supernatant.
Test [10] concerns the target recombinant soluble homotrimeric HA of A/Indonesia/5/05 (H5N1) (Influenza A virus A/Indonesia/5/2005 (H5N1)). Nature of the test: HA microarray, BCC supernatant.
Test [11] deals with recombinant soluble homotrimeric HA of A/Solomon Islands/3/06 (H1N1) (Influenza A virus A/Solomon Islands/3/2006 (H1N1)). Nature of the test: HA microarray, BCC supernatant.
For test [12], the target named is recombinant soluble homotrimeric HA of A/Vietnam/1203/04 (H5N1) (Influenza A virus A/Vietnam/1203/2004 (H5N1)). Nature of the test: HA microarray, BCC supernatant.
Test [13] deals with recombinant soluble homotrimeric HA of A/Wisconsin/67/05 (H3N2) (Influenza A virus A/Wisconsin/67/2005 (H3N2)). Nature of the test: HA microarray, BCC supernatant.
For test [14], the target named is T1, recombinant homotrimeric HA, A/swine/Ontario/01911-2/99 H4N6 (Influenza A virus A/swine/Ontario/01911-2/99 (H4N6)). Nature of the test: trimeric HA microarray; transfection supernatant set 2.
Test [15] concerns the target recombinant soluble homotrimeric HA of A/chicken/Vietnam/NCVD-016/08 (H5N1) (Influenza A virus A/chicken/Vietnam/NCVD-016/2008 (H5N1)). The test can be described thus: HA microarray, BCC supernatant.
For test [16], the target named is T2, recombinant homotrimeric HA, A/Solomon Islands/3/06 H1N1 (Influenza A virus A/Solomon Islands/3/06 (H1N1)). Nature of the test: trimeric HA microarray; transfection supernatant set 2.
For test [17], the target named is recombinant soluble homotrimeric HA of A/Netherlands/219/03 (H7N7) (Influenza A virus A/Netherlands/219/03 (H7N7)). The test can be described thus: HA microarray, BCC supernatant.
Test [18] has as its target recombinant soluble homotrimeric HA of A/swine/Ontario/01911-2/99 (H4N6) (Influenza A virus A/Swine/Ontario/01911-2/99 (H4N6)). The test can be described thus: HA microarray, BCC supernatant.
Test [19] has as its target recombinant soluble homotrimeric HA, A/Netherlands/219/03 (H7N7) (influenza A virus A/Netherlands/219/03 (H7N7)). The test can be described thus: microarray, trimeric HA, transfection supernatant.
Test [20] deals with T2, recombinant homotrimeric HA, A/Solomon …. The test can be described thus: trimeric HA microarray; transfection supernatant set 5.
The target in test [21] is T1, recombinant homotrimeric HA, …. The test is described as above.

B1: TCN-542 (5079_A16) (antibody, V domains shown)
VH: QVQLQESGPGLVKPSQTLSLTCTVSGGSISSGNYYWNWVRQHPGKGLEWIGYIYYRGSTFYNPSLKSRVTISIDTSKNQFSLRLSSVTAADTAVYYCAKDTRSSLDNYQYGMDVWGQGTTVTVSS
VL: QTVVTQEPSLTVSPGGTVTLTCASSTGAVTSSYFPNWFQQKPGQAPRPLIYSTTIRHSWTPARFSGSLLGGKAALTLSGVQPEDEADYYCLLYSGGDPVAFGGGTKLTVL
Regarding B1, the Trimeric HA Binding RLU is 142 RLU in test [1]; 332 RLU in [2]; 7410 RLU in [3]; 786 RLU in test [4]; 5460 RLU in test [5]; 11600 RLU in test [6]. In [7], the Trimeric HA Binding RLU came out at 2370 RLU. Moreover, the Trimeric HA Binding: RLU in test [8] is 5180 RLU.

B2: TCN-522 (3212_I12) (antibody, V domains shown)
VH: QVQLQQWGAGLLKPSETLSLTCTVSGGSLTDYSWNWIRQPPGKGLEWIGDTLHNGYTNYNPSLRGRVSISIDTSKNQVSLRLTSVTAADTALYYCARGSGGYGGFDYFGKLRTWDFWGQGTLVTVSS
VL: DIQLTQSPSSLSASVGDRVTITCRASQGIRNDLGWYQQKPGNAPKRLIFGASSLQSGVPSRFSGSGSGTEFTLTISSLQPEDFATYYCLQHNSYPYTFGQGTKLEIK
For B2, the Trimeric HA Binding RLU in test [9] stood at 5020 RLU; in test [10] it was 67 RLU; in test [1], 989 RLU; in test [11], 38900 RLU; in test [12], 145 RLU; in test [13] it was 302 RLU. For the same molecule, the Trimeric HA Binding: RLU in [14] came to 1050 RLU.

B3: TCN-526 (5084_C17) (antibody, V domains shown)
VH: EVLMVESGGGLVQPGGSVRLSCVASGFSFSSHWMTWVRQAPGKGLEWVANIEDDGGDKYYVDSVKGRFIISRDNAKNSVYLQMNSLRAEDTAVYFCARGSGSSDRSDYDPHYYYYLDVWGKGATVTVSS
VL: DIQLTQSPSSLSASVGDRVTITCRASQSISRYLNWYQQKPGKAPKLLLFAASTLLDGVPSRFSGSGSGTDFTLTISSLQPEDFATYYCQRNHSPSWTFGQGTRVEIK
Turning to B3, the Trimeric HA Binding RLU in test [1] turned out to be 246 RLU; in test [11] it was 341 RLU; in test [13] it was 49300 RLU; in test [15], 179 RLU. Further, the Trimeric HA Binding: RLU in test [16] was 1470 RLU.

B4: TCN-554 (5277_M05) (antibody, V domains shown)
VH: QVQLVQSGADLKKPGASVKVSCKASGYTFTDYYIHWVRQAPGQGLEWMGWINPESGDTKYAQKFQGRVTMTRDTSITTAYMELGRLRSDDTAVYYCARDVSTTWSWFAPWGQGTLVTVSS
VL: DIVMTQSPDSLAVSLGERATINCRSSQSIFHNSNNENYLAWYQQKPGQPPKLLIYWASTRESGVPDRFSGSGSGTDFTLTISSLQAEDVAVYFCQQYYNAPLTFGGGTKVEIK
For B4, the Trimeric HA Binding RLU in [1] turned out to be 328 RLU; in test [17] it was 610 RLU; in [13] it was 46500 RLU; in test [15] it was 250 RLU; in test [18], 78 RLU; in test [19], 4520 RLU. Moreover, the Trimeric HA Binding RLU in [5] came to 2710 RLU; in test [6], 5810 RLU. The Trimeric HA Binding: RLU is 992 RLU in [20] and 5400 RLU in test [21].

(Values after patent US20150104459A1.)
